Assays:
[1] = target: T1, human c-Met-His (Homo sapiens, UniProt P08581); experiment: ELISA binding of c-Met antibody to c-Met antigen; settings: humanized antibody
T1 construct: His tag (6xHis) (C); made in house; host or cells: 293F cells (Invitrogen, Cat # R790-07); vector pEE6.4; c-Met gene template origene RC217003
Description: This experiment uses enzyme linked immunosorbent assay to detect affinity of c-Met antibody (including supermatant of hybridonma or recombinant expressed monoclonal antibodies) to c-Met antigen in vitro.
Experimental procedures: Coating buffer (PBS; Hyclone, Cat No.: SH30256.01B) was used to dilute antigen (human c-Met-His, example 1) to 2 μg/mL, which was added to a 96-well microplate at 100 μL/well (Costar 9018, Cat No.:03113024) and incubated overnight at 4° C. […] The plate was read with plate reader at 450 nm.
Murine anti-human c-Met monoclonal cell lines were obtained by immunizing mice, fusion of spleen cells, and screening of hybridomas. […] After the first booster immunization, mice serum was collected during 7 to 10 days after each booster immunization, and the titer was detected by ELISA (Methods were described in Example 2).
After immunization, mice with a serum titer higher than 1:10^5 were selected for cell fusion. Mouse B-cells and myeloma cells (SP2/0, ATCC number:CRL-1581™) were prepared respectively in aseptic conditions and counted. […] The next day, positive clones were detected by ELISA (see Methods in Example 2).

[2] = test system: MKN45 cells expressing c-Met; experiment: Endocytosis of anti c-Met antibody in MKN45 cells (FACS); type: cell-based, human; settings: MKN45, 10 μg/mL antibody
Description: Antibodies of the invention bind to human c-Met, and have very good in vitro activity and good activity in inhibiting tumor activity in vivo. […] In order to detect whether the antibodies would be internalized into the cell along with human c-Met once bound to human c-Met, human gastric cancer cell line MKN45 (JCRB, Cat No.: JCRB0254) expressing c-Met was used for evaluation.
MKN45 cells were resuspended to 10,000,000 cells/mL in RPMI 1640 medium (GIBCO, Cat No.: 11835-030), which contains 10% (v/v) FBS (GIBCO, Cat No.: 10099-141) and penicillin/streptomycin (GIBCO, Cat No.: 15070-063). 2 mL resuspended MKN45 cells were added to a 96-well microtiter plate with 250,000 cells/well, and 10 μg/mL of c-Met antibody was added to the corresponding wells and the final volume was 100 μL. The plate was incubated at 4° C. for 1 hour. FACS buffer (phosphate buffer solution including 2.5% fetal bovine serum; Hyclone, Cat: SH30256.01B) was added and the plate was centrifuged at 4° C., 1300 rpm for 4 minutes. The supernatant was discarded and this procedure was repeated three times. 100 μL secondary antibody solution (Fluorescence labeled goat anti mouse secondary antibodies at 1:200 dilution, Biolegend, Cat #405307; Fluorescence labeled anti-human secondary antibody at 1:30 dilution, Biolegend, Cat #409304) was added into each well. The plate was incubated at 4° C. for 1 hour. FACS buffer was added and the plate was centrifuged at 4° C., 1300 rpm for 4 minutes. The supernatant was discarded and this procedure was repeated three times. Complete cell culture medium (RPMI 1640 medium with 10% FBS) was added and was incubated at 37° C. in 5% CO2 for 0, 0.5, 1, 2, 4 hours. 5 μL 7-AAD (Biolegend, Cat:420403) was added to 100 μL FACS buffer which was added to each well, and the plate was incubated at 4° C. for 30 minutes. FACS buffer was added and the plate was centrifuged at 4° C., 1300 rpm for 4 minutes. The supernatant was discarded and this procedure was repeated three times. 200 μL Stripping buffer (0.05 M glycine, pH 3.0; 0.1 M NaCl, mixed at 1:1 (v/v)) was added to each well. The cells were resuspended and were incubated for 7 minutes at room temperature. The cells were centrifuged at room temperature at 1300 rpm for 4 minutes, and the supernatant was discarded. 200 μL neutralizing wash buffer (0.15M trihydroxymethyl aminomethane, pH 7.4) was added to each well, the cells were resuspended and centrifuged at room temperature at 1300 rpm for 4 minutes, and the supernatant was discarded. 200 μL FACS buffer was added and the cells were resuspended. The prepared samples were detected by flow cytometry (BD FACS Calibur).
Endocytosis of c-Met antibody %=(intensity of fluorescence at each time point−mean intensity of fluorescence at time 0)/mean intensity of fluorescence at time 0.

T1 sequence (P08581 with tags, fused parts or gaps limits assumed): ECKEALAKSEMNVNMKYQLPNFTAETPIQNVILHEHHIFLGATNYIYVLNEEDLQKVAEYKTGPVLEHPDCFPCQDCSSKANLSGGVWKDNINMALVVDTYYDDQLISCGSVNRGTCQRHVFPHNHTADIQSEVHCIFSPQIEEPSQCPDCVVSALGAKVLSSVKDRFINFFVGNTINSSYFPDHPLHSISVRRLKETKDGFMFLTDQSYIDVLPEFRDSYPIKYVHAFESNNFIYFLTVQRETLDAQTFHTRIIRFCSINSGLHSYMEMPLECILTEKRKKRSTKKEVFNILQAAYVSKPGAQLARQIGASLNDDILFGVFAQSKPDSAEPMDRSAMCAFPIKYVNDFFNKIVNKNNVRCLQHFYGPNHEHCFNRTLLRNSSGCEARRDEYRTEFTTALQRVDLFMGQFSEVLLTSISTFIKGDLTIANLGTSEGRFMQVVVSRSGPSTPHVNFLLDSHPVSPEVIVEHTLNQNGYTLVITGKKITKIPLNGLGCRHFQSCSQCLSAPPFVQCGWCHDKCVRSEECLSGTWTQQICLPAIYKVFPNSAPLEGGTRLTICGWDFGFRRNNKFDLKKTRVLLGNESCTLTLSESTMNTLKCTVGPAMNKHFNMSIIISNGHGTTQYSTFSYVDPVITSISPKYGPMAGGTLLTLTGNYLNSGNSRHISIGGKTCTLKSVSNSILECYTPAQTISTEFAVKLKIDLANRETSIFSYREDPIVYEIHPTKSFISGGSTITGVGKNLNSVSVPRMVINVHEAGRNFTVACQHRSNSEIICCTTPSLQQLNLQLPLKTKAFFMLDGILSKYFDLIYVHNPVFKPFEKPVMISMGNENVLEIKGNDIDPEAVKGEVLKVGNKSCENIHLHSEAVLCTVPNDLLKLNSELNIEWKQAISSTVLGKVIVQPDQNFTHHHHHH

B1: Ab-9 (antibody)
heavy: QVTLKESGPVLVKPTETLTLTCTVSGFSLPNYGVHWVRQPPGKALEWLAVIWSGGSTNYAAAFVSRLRISKDTSKSQVVFTMNNMDPVDTATYYCARNHDNPYNYAMDYWGQGTTVTVSSASTKGPSVFPLAPCSRSTSESTAALGCLVKDYFPEPVTVSWNSGALTSGVHTFPAVLQSSGLYSLSSVVTVPSSNFGTQTYTCNVDHKPSNTKVDKTVERKCCVECPPCPAPPVAGPSVFLFPPKPKDTLMISRTPEVTCVVVDVSHEDPEVQFNWYVDGVEVHNAKTKPREEQFNSTFRVVSVLTVVHQDWLNGKEYKCKVSNKGLPAPIEKTISKTKGQPREPQVYTLPPSREEMTKNQVSLTCLVKGFYPSDIAVEWESNGQPENNYKTTPPMLDSDGSFFLYSKLTVDKSRWQQGNVFSCSVMHEALHNHYTQKSLSLSPGK
light: DIVLTQSPASLAVSPGQRATITCRANKSVSTSTYNYLHWYQQKPGQPPKLLIYLASNLASGVPARFSGSGSGTDFTLTINPVEANDTANYYCQHSRDLPPTFGQGTKLEIKRTVAAPSVFIFPPSDEQLKSGTASVVCLLNNFYPREAKVQWKVDNALQSGNSQESVTEQDSKDSTYSLSSTLTLSKADYEKHKVYACEVTHQGLSSPVTKSFNRGEC
In the case of B1, the EC50 [1] is reported as 0.13 nM, the endocytosis % ([2]; 0 h) is reported as 0% and the endocytosis % ([2]; 0.5 h) is reported as 26%. For the same molecule, the endocytosis % ([2]; 1 h) was 32%, the endocytosis % ([2]; 2 h) was 32% and the endocytosis % ([2]; 4 h) was 31%.

Source: US20200054764A1, “MEDICAL USE OF ANTI-C MET ANTIBODY-CYTOTOXIC DRUG CONJUGATE” (priority 2016, published 2020)
